The values that follow come from paper PMC4513076.

Series [1] addresses T1, IolR (Salmonella enterica) (UniProt A0A0H3NJ61).
T1 sequence: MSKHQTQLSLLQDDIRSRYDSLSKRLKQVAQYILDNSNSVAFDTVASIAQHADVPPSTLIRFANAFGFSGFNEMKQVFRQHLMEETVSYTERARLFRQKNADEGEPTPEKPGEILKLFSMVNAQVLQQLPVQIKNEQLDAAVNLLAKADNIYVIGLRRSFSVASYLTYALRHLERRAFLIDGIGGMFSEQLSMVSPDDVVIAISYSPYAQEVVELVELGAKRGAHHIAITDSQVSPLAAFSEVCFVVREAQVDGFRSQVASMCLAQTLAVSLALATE
The series can be described thus: EMSA. Background: In EMSA bound probe runs differently from free probe, usually more slowly.

Series [2] addresses IolR, myo-inositol catabolism repressor (RpiR-like transcriptional repressor) of Salmonella enterica (Salmonella enterica serovar Typhimurium LT2). The series can be described thus: SEC. (In general: SEC sorts molecules by how far they enter the pores of the column.)
Series [3] addresses IolR (Salmonella enterica, UniProt A0A0H3NJ61 1-277). The series can be described thus: EMSA.

The term stoichiometry N denotes a count of units in the complex or per binding partner.

As to “CATACCGGTTTCCCTTACACAGAAGTGACCGGATAATTTTAAACGCTTTCGCTATTTTATGCTGTGACGTTTCCCGGATGTTGCGTTTTTCCTGCCAGATAGCGCGTTTTGAAACGGGTGAAATGTTCACCTAAACTGGTTGCCGCCTCG (double strand) [Ppat (150 nt)]”, the binding entry in series [1] is “binds”.
For the molecule “CATGCATGATACTCTAATAGAACGAAAATTTCGTAAATAACCATATTAGCACAAATGAACTGAACATACAGTTAACAACATTCAAATTGCGCTGTGGTTACCTTCAGTACAGAATTTGCTGGCGGGCTGGGTTCTGAGCAATCTGAATCTGACCGCATAAATGCGACAGGATCAG (double strand) [PiolR (175 nt)]”, the binding result in series [1] was “binds”.
In series [2], “IolR, myo-inositol catabolism repressor (RpiR-like transcriptional repressor) of Salmonella enterica (natural protein)” came in with a stoichiometry N of 4.

B1: Ppat45 (dsDNA)
DNA 1: CAACCAGTTTAGGTGAACATTTCACCCGTTTCAAAACGCGCTATCT
DNA 2: AGATAGCGCGTTTTGAAACGGGTGAAATGTTCACCTAAACTGGTTG
On to B1, for which the binding result in series [3] is listed as “binds”.
